Data: publication PMC4894655, “Three proliferating cell nuclear antigen homologues from Metallosphaera sedula form a head-to-tail heterotrimer” (Scientific Reports, 2016)

Tests used:
MsePCNA2 [1] = molecular target: T1, MsePCNA2 (Metallosphaera sedula, UniProt A4YHP5 1-244); assay: SPR; 2.5 nM SsoPCNA1
T1 chain: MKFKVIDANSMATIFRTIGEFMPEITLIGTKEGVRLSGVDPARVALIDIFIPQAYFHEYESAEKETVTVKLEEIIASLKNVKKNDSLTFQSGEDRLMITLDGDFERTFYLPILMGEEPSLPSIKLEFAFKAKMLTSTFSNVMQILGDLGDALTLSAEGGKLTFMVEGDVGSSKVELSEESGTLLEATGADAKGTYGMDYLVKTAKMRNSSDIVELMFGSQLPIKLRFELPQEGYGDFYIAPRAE

SsoPCNA2 [2] = molecular target: T2, SsoPCNA2 (Sulfolobus solfataricus); assay: SPR; 2.5 nM SsoPCNA1
T2 chain: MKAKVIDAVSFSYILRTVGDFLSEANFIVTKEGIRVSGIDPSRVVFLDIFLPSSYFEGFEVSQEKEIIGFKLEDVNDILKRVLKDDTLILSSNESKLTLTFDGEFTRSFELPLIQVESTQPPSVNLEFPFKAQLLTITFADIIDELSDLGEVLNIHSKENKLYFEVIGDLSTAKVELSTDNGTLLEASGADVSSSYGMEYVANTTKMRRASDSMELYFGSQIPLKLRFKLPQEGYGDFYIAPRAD

MsePCNA2 [3] = molecular target: T1, MsePCNA2; assay: SPR; 20 nM SsoPCNA1
SsoPCNA2 [4] = molecular target: T2, SsoPCNA2; assay: SPR; 20 nM SsoPCNA1
MsePCNA2 [5] = molecular target: T1, MsePCNA2; assay: SPR; 20 nM SsoPCNA1
SsoPCNA2 [6] = molecular target: T2, SsoPCNA2; assay: SPR; 20 nM SsoPCNA1
SsoPCNA2 [7] = molecular target: T2, SsoPCNA2; assay: SPR; 5 nM SsoPCNA1
MsePCNA2 [8] = molecular target: T1, MsePCNA2; assay: SPR; 0.61 nM SsoPCNA1
SsoPCNA2 [9] = molecular target: T2, SsoPCNA2; assay: SPR; 0.61 nM SsoPCNA1
MsePCNA2 [10] = molecular target: T1, MsePCNA2; assay: SPR; 10 nM SsoPCNA1
MsePCNA2 [11] = molecular target: T1, MsePCNA2; assay: SPR; 5 nM SsoPCNA1
SsoPCNA2 [12] = molecular target: T2, SsoPCNA2; assay: SPR; 5 nM SsoPCNA1
SsoPCNA2 [13] = molecular target: T2, SsoPCNA2; assay: SPR; Biacore; about 350 RU of MsePCNA2 or SsoPCNA2 immobilised on Sensor Chip CM5; MsePCNA1 or SsoPCNA1 injected (2.5, 5, 10, 20, 40 nM), kinetic fit; 10 mM HEPES-HCl pH 7.4, 150 mM NaCl
MsePCNA2 [14] = molecular target: T1, MsePCNA2; assay: SPR; 2.5 nM SsoPCNA1
SsoPCNA2 [15] = molecular target: T2, SsoPCNA2; assay: SPR; 2.5 nM SsoPCNA1
MsePCNA2 [16] = molecular target: T1, MsePCNA2; assay: SPR; 75 nM SsoPCNA1
SsoPCNA2 [17] = molecular target: T2, SsoPCNA2; assay: SPR; 75 nM SsoPCNA1
MsePCNA2 [18] = molecular target: T1, MsePCNA2; assay: SPR; 75 nM SsoPCNA1
SsoPCNA2 [19] = molecular target: T2, SsoPCNA2; assay: SPR; 40 nM SsoPCNA1
MsePCNA2 [20] = molecular target: T1, MsePCNA2; assay: SPR; 0.61 nM SsoPCNA1
SsoPCNA2 [21] = molecular target: T2, SsoPCNA2; assay: SPR; 0.61 nM SsoPCNA1
MsePCNA2 [22] = molecular target: T1, MsePCNA2; assay: SPR; 40 nM SsoPCNA1
MsePCNA2 [23] = molecular target: T1, MsePCNA2; assay: SPR; 10 nM SsoPCNA1
SsoPCNA2 [24] = molecular target: T2, SsoPCNA2; assay: SPR; 10 nM SsoPCNA1

B1: SsoPCNA1 (natural protein)
chain: MFKIVYPNAKDFFSFINSITNVTDSIILNFTEDGIFSRHLTEDKVLMAIMRIPKDVLSEYSIDSPTSVKLDVSSVKKILSKASSKKATIELTETDSGLKIIIRDEKSGAKSTIYIKAEKGQVEQLTEPKVNLAVNFTTDESVLNVIAADVTLVGEEMRISTEEDKIKIEAGEEGKRYVAFLMKDKPLKELSIDTSASSSYSAEMFKDAVKGLRGFSAPTMVSFGENLPMKIDVEAVSGGHMIFWIAPRL
koff (MsePCNA2 [1]): 0.000512 s⁻¹ | koff (SsoPCNA2 [2]): 0.000171 s⁻¹ | Kd (MsePCNA2 [3]): 2.67 nM | Kd (SsoPCNA2 [4]): 0.116 nM | koff (MsePCNA2 [5]): 0.000472 s⁻¹ | koff (SsoPCNA2 [6]): 0.000163 s⁻¹ | Kd (SsoPCNA2 [7]): 0.602 nM | koff (MsePCNA2 [8]): 0.000528 s⁻¹ | koff (SsoPCNA2 [9]): 0.000172 s⁻¹ | Kd (MsePCNA2 [10]): 1.57 nM | koff (MsePCNA2 [11]): 0.000505 s⁻¹ | koff (SsoPCNA2 [12]): 0.000173 s⁻¹ | Kd (SsoPCNA2 [13]): 0.65 nM | koff (SsoPCNA2 [13]): 0.00015 s⁻¹ | kon (SsoPCNA2 [13]): 250000 M⁻¹ s⁻¹ | Kd (MsePCNA2 [14]): 1.41 nM | Kd (SsoPCNA2 [15]): 0.473 nM | koff (MsePCNA2 [16]): 9.46e-05 s⁻¹ | koff (SsoPCNA2 [17]): 3.07e-05 s⁻¹ | Kd (MsePCNA2 [18]): 2.14 nM | koff (SsoPCNA2 [19]): 0.000134 s⁻¹ | Kd (MsePCNA2 [20]): 1.21 nM | Kd (SsoPCNA2 [21]): 0.383 nM | Kd (MsePCNA2 [22]): 1.63 nM | koff (MsePCNA2 [23]): 0.000501 s⁻¹ | koff (SsoPCNA2 [24]): 0.000182 s⁻¹
